# Data: publication PMC10579536 (Research and Practice in Thrombosis and Haemostasis, 2023)
# Where two headings read alike, the source gives them in different places.
# B1: Recombinant VWF A2 domain fused to Fc (Fc fusion)
# chain: PGLLGVSTLGPKRNSMVLDVAFVLEGSDKIGEADFNRSKEFMEEVIQRMDVGQDSIHVTVLQYSYMVTVEYPFSEAQSKGDILQRVREIRYQGGNRTNTGLALRYLSDHSFLVSQGDREQAPNLVYMVTGNPASDEIKRLPGDIQVVPIGVGPNANVQELERIGWPNAPILIQDFETLPREAPDLVLQRCCSG
# B2: Recombinant VWF D4 domain fused to Fc (Fc fusion)
# chain: PCVCTGSSTRHIVTFDGQNFKLTGSCSYVLFQNKEQDLEVILHNGACSPGARQGCMKSIEVKHSALSVELHSDMEVTVNGRLVSVPYVGGNMEVNVYGAIMHEVRFNHLGHIFTFTPQNNEFQLQLSPKTFASKTYGLCGICDENGANDFMLRDGTVTTDWKTLVQEWTVQRPGQTCQPILEEQCLVPDSSHCQVLLLPLFAECHKVLAPATFYAICQQDSCHQEQVCEVIASYAHLCRTNGVCVDWRTPDFCAMSCPPSLVYNHCEHGCPRHCDGNVSSCGDHPSEGCFCPPDKVMLEGSCVPEEACTQCIGEDGVQHQFLEAWVPDHQPCQICTCLSGRKVNCTTQPCPT
# B3: Recombinant human angiopoietin-2 (ligand, UniProt O15123 19-496, looked up)
# chain: YNNFRKSMDSIGKKQYQVQHGSCSYTFLLPEMDNCRSSSSPYVSNAVQRDAPLEYDDSVQRLQVLENIMENNTQWLMKLENYIQDNMKKEMVEIQQNAVQNQTAVMIEIGTNLLNQTAEQTRKLTDVEAQVLNQTTRLELQLLEHSLSTNKLEKQILDQTSEINKLQDKNSFLEKKVLAMEDKHIIQLQSIKEEKDQLQVLVSKQNSIIEELEKKIVTATVNNSVLQKQQHDLMETVNNLLTMMSTSNSAKDPTVAKEEQISFRDCAEVFKSGHTTNGIYTLTFPNSTEEIKAYCDMEAGGGGWTIIQRREDGSVDFQRTWKEYKVGFGNPSGEYWLGNEFVSQLTNQQRYVLKIHLKDWEGNEAYSLYEHFYLSSEELNYRIHLKGLTGTAGKISSISQPGNDFSTKDGDNDKCICKCSQMLTGGWWFDACGPSNLNGMYYPQRQNTNKFNGIKWYYWKGSGYSLKATTMMIRPADF
# B4: Recombinant human angiopoietin-1 (ligand, UniProt Q15389 16-498, looked up)
# chain: HIGCSNQRRSPENSGRRYNRIQHGQCAYTFILPEHDGNCRESTTDQYNTNALQRDAPHVEPDFSSQKLQHLEHVMENYTQWLQKLENYIVENMKSEMAQIQQNAVQNHTATMLEIGTSLLSQTAEQTRKLTDVETQVLNQTSRLEIQLLENSLSTYKLEKQLLQQTNEILKIHEKNSLLEHKILEMEGKHKEELDTLKEEKENLQGLVTRQTYIIQELEKQLNRATTNNSVLQKQQLELMDTVHNLVNLCTKEGVLLKGGKREEEKPFRDCADVYQAGFNKSGIYTIYINNMPEPKKVFCNMDVNGGGWTVIQHREDGSLDFQRGWKEYKMGFGNPSGEYWLGNEFIFAITSQRQYMLRIELMDWEGNRAYSQYDRFHIGNEKQNYRLYLKGHTGTAGKQSSLILHGADFSTKDADNDNCMCKCALMLTGGWWFDACGPSNLNGMFYTAGQNHGKLNGIKWHYFKGPSYSLRSTTMMIRPLDF
# B5: Tie-2/Fc (Fc fusion, human, UniProt Q02763 23-748, looked up)
# chain: AMDLILINSLPLVSDAETSLTCIASGWRPHEPITIGRDFEALMNQHQDPLEVTQDVTREWAKKVVWKREKASKINGAYFCEGRVRGEAIRIRTMKMRQQASFLPATLTMTVDKGDNVNISFKKVLIKEEDAVIYKNGSFIHSVPRHEVPDILEVHLPHAQPQDAGVYSARYIGGNLFTSAFTRLIVRRCEAQKWGPECNHLCTACMNNGVCHEDTGECICPPGFMGRTCEKACELHTFGRTCKERCSGQEGCKSYVFCLPDPYGCSCATGWKGLQCNEACHPGFYGPDCKLRCSCNNGEMCDRFQGCLCSPGWQGLQCEREGIQRMTPKIVDLPDHIEVNSGKFNPICKASGWPLPTNEEMTLVKPDGTVLHPKDFNHTDHFSVAIFTIHRILPPDSGVWVCSVNTVAGMVEKPFNISVKVLPKPLNAPNVIDTGHNFAVINISSEPYFGDGPIKSKKLLYKPVNHYEAWQHIQVTNEIVTLNYLEPRTEYELCVQLVRRGEGGEGHPGPVRRFTTASIGLPPPRGLNLLPKSQTTLNLTWQPIFPSSEDDFYVEVERRSVQKSDQQNIKVPGNLTSVLLNNLHPREQYVVRARVNTKAQGEWSEDLTAWTLSDILPPQPENIKISNITHSSAVISWTILDGYSISSITIRYKVQGKNEDQHVDVKIKNATITQYQLKGLEPETAYQVDIFAENNIGSSNPAFSHELVTLPESQAPADLGGGKMLL
# How the values were obtained:
# Assay in all cases: ELISA
# [1] = biological target: Recombinant human angiopoietin-2 (human) (UniProt O15123)
# [2] = biological target: Recombinant VWF fragment D’-D3-HPC4
# [3] = biological target: B3
# [4] = biological target: von Willebrand factor (plasma-derived) (human (endogenous in plasma), UniProt P04275 764-2813)
# Tie-2/Fc = biological target: B5
# [5] = biological target: B4
# [6] = biological target: B3; remark: listed apart in the source
molecule,measurement,setting,value
Recombinant VWF fragment D’-D3-HPC4 (domain or fragment),EC50,[1],159 nM
Recombinant FVIII (from UniProt P00451 20-2351) (natural protein),maximal percent inhibition of binding to Ang-2,[2],77%
B1,EC50,[3],36.7 ± 9.7 nM
B2,EC50,[3],18 ± 6 nM
B3,EC50,[4],5.3 ± 1 nM
same,binding result,Tie-2/Fc,binds
B4,binding result,Tie-2/Fc,binds
B5,EC50,[5],0.2 ± 0.1 nM
same,EC50,[6],0.2 ± 0.1 nM
